Laboratory results taken from patent US20140178373A1 (TORAY INDUSTRIES, published 2014).
Positions count from the first letter of the chain named.

T1: CAPRIN-1 protein on the cell membrane surface of human cancer cell lines (human, UniProt Q14444 2-709)
T1 sequence (looked up): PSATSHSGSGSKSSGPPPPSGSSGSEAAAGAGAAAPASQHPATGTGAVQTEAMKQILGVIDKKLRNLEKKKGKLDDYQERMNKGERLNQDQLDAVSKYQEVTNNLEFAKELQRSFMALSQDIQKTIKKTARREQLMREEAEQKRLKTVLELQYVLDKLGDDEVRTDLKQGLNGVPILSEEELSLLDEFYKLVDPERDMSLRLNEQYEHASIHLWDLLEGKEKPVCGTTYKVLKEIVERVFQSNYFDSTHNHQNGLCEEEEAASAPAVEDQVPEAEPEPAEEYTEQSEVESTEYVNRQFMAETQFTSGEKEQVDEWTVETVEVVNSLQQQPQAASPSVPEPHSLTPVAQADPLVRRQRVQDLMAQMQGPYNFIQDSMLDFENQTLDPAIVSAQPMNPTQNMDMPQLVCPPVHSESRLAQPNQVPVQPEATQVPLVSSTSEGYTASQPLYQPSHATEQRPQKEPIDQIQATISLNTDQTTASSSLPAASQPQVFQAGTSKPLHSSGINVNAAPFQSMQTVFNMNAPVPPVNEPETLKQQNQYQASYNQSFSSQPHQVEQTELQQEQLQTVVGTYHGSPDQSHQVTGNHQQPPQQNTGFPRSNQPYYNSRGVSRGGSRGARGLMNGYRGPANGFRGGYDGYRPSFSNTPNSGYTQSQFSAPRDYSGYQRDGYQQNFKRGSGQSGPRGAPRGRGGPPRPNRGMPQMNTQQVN

B1: human-mouse chimeric comparative antibody 4 (antibody, human IgG1, kappa, V domains shown)
VH: EVQLHQFGAELVKPGASVKISCKASGYTFTDYNMDWVKQSHGKSLEWIGDINPNYDSTSYNQKFKGKATLTVDKSSSTAYMELRSLTSEDTAVYYCARSRSYDYEGFAYWGQGTLVTVSA
VL: SGDRVSLSCRASQSISNYLHWYQQKSHESPRLLIKYASQSISGIPSRFSGSGSGTDFTLSINSVETEDFGMYFCQQSNSWPYTFGAGTKLEIKQ
B2: human-mouse chimeric comparative antibody 7 (antibody, human IgG1, kappa, V domains shown)
VH: LQESGAELARPGASVKLSCKASGYTFTSYWMQWVKQRPGQGLEWIGAIYPGDGDTRYTQKFKGKATLTADKSSSTAYMQLSSLASEDSAVYYCARGEYGNYFAYWGQGTTVTVSS
VL: TSDASLGERVTITCKASQDINSYLSWFQQKPGKSPKTLIYRANRLVDGVPSRFSGSGSGQDYSLTISSLEYEDMGIYYCLQYDEFPLTFGGGTKLEIKQ
B3: human-mouse chimeric comparative antibody 1 (antibody)
heavy: not shown
light: DIQMTQSPASLSASVGETVTITCRASGNIHNYLAWYQQKQGKSPQLLVYNAKTLADGVPSRFSGSGSGTQYSLKINSLQPEDFGSYYCQHFWSTLTFGAGTKLELKRTVAAPSVFIFPPSDEQLKSGTASVVCLLNNFYPREAKVQWKVDNALQSGNSQESVTEQDSKDSTYSLSSTLTLSKADYEKHKVYACEVTHQGLSSPVTKSFNRGEC
B4: human-mouse chimeric comparative antibody 3 (antibody)
heavy: not shown
light: B3 light with M4L, A99G, L105I, R107Q

Molecular target: T1, CAPRIN-1 protein on the cell membrane …
Assay: cell-based or functional assay

| Binder | cytotoxic activity (ADCC) against MCF7, HCT-116, MIAPaCa-2, Caki-2 and QG56 [%] | cytotoxic activity (ADCC) against all other cancer cells (19 further cell lines) [%] |
| --- | --- | --- |
| B1 | < 5 | < 4 |
| B2 | < 5 | < 4 |
| B3 | < 5 | < 4 |
| B4 | < 5 | < 4 |
